Data: article PMC6269598

Legend:
[1] = target: PGT121; test: SEC; each antibody alone, stored at 30°C; data not shown
[2] = SEC; each antibody alone at 100 mg/mL (second study also 50 mg/mL) in 20 mM acetate, 9% sucrose, 0.01% polysorbate 80, pH 5.2, stored at 40°C (also 25°C) up to 12 weeks; diluted 100-fold before SE-HPLC; TSKgel G3000SWxl, 0.2 M sodium phosphate pH 6.8, column at 30°C; dimer and multimer defined by …
[3] = target: 3BNC117; test: SEC; each antibody alone, stored at 30°C; data not shown
[4] = target: 3BNC117; test: SEC; each antibody alone at 100 mg/mL (second study also 50 mg/mL) in 20 mM acetate, 9% sucrose, 0.01% polysorbate 80, pH 5.2, stored at 40°C (also 25°C) up to 12 weeks; diluted 100-fold before SE-HPLC; TSKgel G3000SWxl, 0.2 M sodium phosphate pH 6.8, column at 30°C; dimer and multimer defined by elution time relative to the monomer

PGT121 (antibody)
stoichiometry N [1]: 2

3BNC117
increase of the dimer's share of the SE-HPLC area against day 0 (12 weeks, 40°C) [2]: ∼6% increase compared to day 0 at 40 °C

PGT121
increase of the multimers' share of the SE-HPLC area against day 0 (12 weeks, 40°C) [2]: ∼3% increase compared to day 0 at 40 °C

3BNC117 (antibody)
stoichiometry N [3]: 2
rate of dimer formation at 40°C relative to PGT121 [4]: 3.5 fold
stoichiometry N [4]: 2
